Assay: soluble on expression in E. coli; label from the status in PepcDB or PDB records

Row | Sequence | soluble on expression in E. coli
1 | MSLGEHILLNQTLSDVIHYFKSQRCGGVFDQQDRQVPVLNANQTVDVHGGWYDASGDVSKYLSHLSYANYLNPQQTPMVVWNILKGLSLLEGSEDIAAFTRTRLIEEALFGADFLVRMQNEKGFFYMTVFDKWSKDTAQREICAYETQLGHKFDDYQAGFRQGGGVAIAALAAASRLGVHGEYDQQKYRNAAENGYWHLKEHNTQYLNDGEENIIDEYCALLASVELFKATKETRYLEESRLWAQRLVARQMSDEQIQHFWSANQDGSRPYFHAAEAGLPGIALCEYLAIEDDSVQTESVKCIVNRACEFEIKISNKVTNPFGYPRQYVKGVNESKRDAFFVAHNNESGYWWQGENARLGSLATMAYLAQPHIASQEIQQQLSVFAQDALNWIVGLNPYDMCMLDGHGRNNPDYLPQYGFFNAKGGVCNGITGGFEDEEDIAFNPPAQKDDMLQNWRWGEQWIPHGAWYLLAIMSQAQHISQLATSKNIKEGHHHHHH | not soluble
2 | MSLGELPPAPSDSKRTVFLDIDETLVHVTPYPLPFVKPDATFLLQEHRRPSDPPGVSPEYLPGVSAGAAPRAALLHVYYRPFLMPFLENLLQTNRCELVAFTAALREYADPILDGIETKLGGARGSVFAARLYRQHCARAPRSKDLVHAAPSRCLSRCVLLDNSVVSLAAQLANGLLLRPFYGDPQDRELEGVLAFLLDLLEKTGDIRESMKESGMLHKVTEGHHHHHH | not soluble
3 | MSLGIRIGDGCIFRDPLTTRIDVSRPALVSIGSNVDMNTYFQILTHDWASFVFRNKYHDFVNSSGRVEIGSNIYIGTNVIVLRGVTIGDNCVIGAGSVVTHDIPANSVAVGAPCRVVCSLDEYYQKRKVKGLQEAVEHVKAFQKNFGRDPLPHELYEEFIYFVDASNVEEYERQGVPVRSQLSIAYGDWLSTHKAKFSSYDDFIQYVNQKMNETLEHHHHHH | not soluble
4 | MSLGKEKKVYIFDSILRDGSQAQGVSFSVADKIKIVKKLDELGIDYIEAGNPSSNPKDREFFEEIRSLKLKHSKLCAFGSTRRAGAKAEEDEGIKKLVDSGVNVFSIFGKAWDFHVTDIIKTSIEENLNMIRDSIKYLVSLNKEVVFDAEHFFDGFKSNKEYAIEVLNTARLAGAKWIVLCDTNGGTMPNEVSDIVKYLVRDLNFDNLGVHFHDDSGMAVANSVVAVHYGVNHVQGTFTGVGERCGNANLSNIIANLSLKMGYNTIKNDKLEYLTVAFRYICEACNMTPNERVAYVGNCAFSHKGGMHIDAVRKNPKSFEHIDPSRVGNSRRILVSEVSGRSTILPALKRINPKIDKDSPETKAVVKRIKDLEYLGYQFEGAEGSFELLMRKELNVFRPSFELVEYKVIAERPYLSDLSATAIVKIMVNGKLETTAADGKGPVNALDKALRKALGVFYKELANVYLTDYKVRVISGTKATSAKIRVLIESTDGVSTWTTVGVSYDIIEASWLALVDSVEYKLIQCNKEENNNEKTDDYDTKNTEGHHHHHH | soluble
5 | MSLGLDNLYRVLDANVNRTSEGLRVLEDLARFCYNDRLLSKRIKELRHSVRKNIAGLVPNLISSRDSVNDVGLKTSMEMDIDRKASLLDLARANFKRVQEALRTVEESLKVLNENDLSKFYESCRFETYSIEKEYFKVLTFENKKGRLNEIITGLYCITSEEHSKGRSNIEVVEKMIKAGVKIIQYREKKKSLLEKYNECKKIREMTLDSGVTFIVNDNIDIAMMVKADGVHIGQDDLPIEKVRELVGDEMIIGISTHSPTQAEDAVRRGADYIGVGPLYRTYTKEDVCEPVGLEYLDYVVKNINIPYVAIGGIKEHNMDEVLARGARCIAMVTEIVGADDIEEKISKVKSKFSRGEGHHHHHH | soluble
6 | MSLGLVLSTNVAHIQQDPGGDDRISGINKLPVATGIDVFIPGPNYGDGSGVVGDAIGDSLHHGGAHKAIYAYSREELDFFDPTYRNGYFGENLTTSGIVLEDLLINQQVRIGTTLLEVSIPRRPCRTFAHWLDIKGWLKTFTQRGLPGSYFRVIEEGHINPGDPIEVLQAPDHDITMSMAFRAKMGNKDLARRVVAANCLPARYHEELLKLIEGHHHHHH | not soluble
7 | MSLGNASMTKTDIATRVHNHTWKLDPIVRSLIDTDFYKLLMLQMIWKLYPEVDATFSLINRTKTVRLAEEIDEMELREQLDHARTLRLSKKENIWLAGNTFYGRSQIFEPEFLSWLSSYQLPEYELFKRDGQYELNFHGRWMDTTLWEIPALSIINELRSRSAMRSLGYFTLDVLYARAKAKMWEKVERLRELPGLRISDFGTRRRHSFLWQRWCVEALKEGIGPAFTGTSNVLLAMDSDLEAVGTNAHELPMVVAALAQTNEELAAAPYQVLKDWNRLYGGNLLIVLPDAFGTAAFLRNAPEWVADWTGFRPDSAPPIEGGEKIIEWWRKMGRDPRTKMLIFSDGLDVDAIVDTYRHFEGRVRMSFGWGTNLTNDFAGCAPKTIASLKPISIVCKVSDANGRPAVKLSDNPQKATGDPAEVERYLKFFGEEDHKEQKVLVEGHHHHHH | soluble
8 | MSLGNYNSQYENYYRNLQNRSIRTSSYYKSSGFNRKNLGEKIIKKIEFQLIGTLVLFLAVFSLREVITPETKAACNYIKYTVSYNYDYSQILSYIEGFNLNDVETYASKIDMDSLKNQSVDYIENLKARVTGEKTFGAKIKQEYCLPINGKIASHFKQKDKDVLGNQYLNNGVDIKANSDLDVKAIYDGTVEKVGEDKDFGKYVMVDNGDGVESKYSNMDSFEVQRGDGVTKGEVLGKVKKNDDASKSYLHFEIMYMGENQDPENYFTFKEGHHHHHH | not soluble
9 | MSLGPIIMGQSLKAGIFFRIVTGSASMSSDRADGSSVTYSSNRSGNPDLRLIHYNDVYHVEPGSAEPVGGAPRFQSVINHYRSHPSFDGQPTPLTFFSGDAFNPSLESTVTKGRHMVPFLNKAGTNVACVGNHDLDFGVAQFRHLRNQCQFPWLLANVLDPALGEDVPIANCEKTCMLTSSNGIKVGVIGLGEREWLGTINSLPPDLIYKSASKTAIELVPSLREQGAELIVAVTHQREPNDYKLAESIPYGMIDIILGGHDHFYGHAFLNGVHILRSGTDFKQLSYIEAFRKTDGRGWDFNIVRREGHHHHHH | soluble
10 | MSLGQFSISEVGHFYIAANTSLKHIHVTCAIIERDGLVLAAQRSAVMSLPLKWEFPGGKIDPGESPEECLRRELVEEMAVHVRVGQSLPVSTHQYPTFSVTLYPFLCTIESGEIVLHEHVAVTWLPPDELHTLDWAEADLPVIKSYQQGCRMRDHEGHHHHHH | not soluble
11 | MSLGSAIETLERLLKKRLRVPQEQLDTNPWLLNCANGTVDLRTGTLKAHRPEDYITRVVPLNFDPKATAPEFITTLARITCEEGQAGKPLCAFLQRWFGYCATGEVREQKFAVLYGDGNNGKSTLLDLITGILGRYSGVAAPGLLTGKNGPQHPNAIADLAGRRMVTTHESGEGEVLREDFVKQATGGDTLKARYLYGEFFEFKPTHKLQLLTNHKPAIKGQDSGIWRRIMLIPFKAKFDAAEGEEIGNGKYPRDMRIAEKLAAEREGVLAWIVAGAVEWYKNGLRPPDIVLAASEDYKEEQDRVGQFIDEECELGVEKEEKLSTPMGGGLYPAYTQWCKASGVCALSKVRFLGGLERRVPGFKKKVTKETVGAGKRREFVVIQGVALVDADEGHHHHHH | not soluble
12 | MSLGTLPPELQNTCVARGKLPLLLDLDNTLLHAQAASATGCDVRLQDWIDPYGEPELYRFELPCNRKTYYMKLRPHLRTFLKKLEPFYEMSVYTNATQEYADIVIAILDGNRQLFQDRIVARDSGFRGEASENKAVRRLYEGMDKRCIVAFDDRQNIWTDLPLTHVVKAQHYDFFDSHKTELNAYYPPLSNGIEGMTAPDVLGNRQNEDEGHHHHHH | not soluble
13 | MSLGVEENPKLPKSVQRHLEPDERVLFAIKKKISIEKPKWLLVTDRRIIYLDEKVLGRYDFKAIPYQKLEQVVVKLGIMSSEFIIEGEENITLKLGWMDKEEARKAINAIKDALNAIAVEPVSIDVNKGLTSETWVLKKPREFVTRTMPAYQPAQVREEKEDPLEKLKKLKELYDMGVISQEEYEEKRKKLLEEIEGHHHHHH | soluble
14 | MSLGVSFNIMCPNSSIYSDEKSRVLVDKTKSGKVRPWREKKIANVDYFELLHILEFKKAERVKDCAEILEYKQNRETGERKLYRVWFCKSRLCPMCNWRRAMKHGIQSQKVVAEVIKQKPTVRWLFLTLTVKNVYDGEELNKSLSDMAQGFRRMMQYKKINKNLVGFMRATEVTINNKDNSYNQHMHVLVCVEPTYFKNTENYVNQKQWIQFWKKAMKLDYDPNVKVQMIRPKNKYKSDIQSAIDETAKYPVKDTDFMTDDEEKNLKRLSDLEEGLHRKRLISYGGLLKEIHKKLNLDDTEEGDLIHTDDDEKADEDGFSIIAMWNWERKNYFIKEEGHHHHHH | soluble
15 | MSLHKEYIQNYLNLTRNTGNLMLFAGDQKIEHLNEDFYGKDISKDDADPEHLFKIAENSKIGGFAVQFGLLSRYGRDHKDINYIVKLNSKTNLVDTNQKDPLSRALLDINDILEFKKNSGINIVGVGYTIYLGSEYESEMLSEASKIIYEAHKGGLVVILWIYPRGKAVKDEKDSELISGATGVAACLGADFVKVNYPKSENPAESFKEAVMAAGRTKVVCAGGSSTDIESFLKQLYEQIHISGASGNATGRNIHQKSLSDAVSMCNAIYAITIDGKTVSEALNIYNERKSEGHHHHHH | not soluble
16 | MSLHLSKGFSNMIGVVLPTVNLPYFAELIAGIADAAAESGVHLSLFQTNYEVQKEIFALSQLKQRQVDGLIFCSKALADEKLMEWEGPILLCQNSDNARFPTISIPHQEAFRNGLDYLIAKGHKKIAICLARKKGMNSHFRIKAYKEALEEIGEAFREDWVIEKAITINDGKALFHKWNTWKEKPTAIFVANDQVSAGLFLEAKNQRVSVPDELAILSVDNHEISQALGITTIDIQTREMGKQAFAILEKRIQGQPIERKVLDYRLIERSTVEGHHHHHH | soluble
17 | MSLIEIPGFIDLHTHTRYPDNDKFPFIDIDDSAINGGFSTILAMPNSEIPIDSIKNLRIAQEIDKKLKTKVHRVGSLTKNLEGKELVNYKEFVENGITIFSDDGKSLINDHLADEAFKQISKLGGAVFQHCEKSCHSKPGDIAPPNSNSDLILINNDEELEVLERDLSLSEKYGTRYHAQHLSTFESVELIKKAKQEGLPVTAEVTPHHILLNNENLDTNNGLFKMYPPLRTEKDREGLVEGLQSEIIDVIATDHAPHKAETKNVPFKDANRGVVGLNEGHHHHHH | soluble
18 | MSLIHEISENEKPREKLQNYGIEALSSSELVALIIETGTKNESVLTIANRIIMKFKNVGEMQYASIEEFQLVNGIGIAKASKIMAAIELGRRIGIVTEQEEVVVRCPEDAVKLVMPELAFLFQEHFHCLFLNTKNQVIYRQTIFVGGLNASIVHPREVFRLALRKSAASIMCFHNHPSGDPTPSSEDLLVTKRLAEAGNIVGITLLDHIIIGKNKYISLKEKGYFEGHHHHHH | not soluble
19 | MSLIILDNHFHVDPNHGLFLEAVKQFQRAGGTHLIVVYKTAHDYGFPGLKAEDFMKAMDFHIELVEKINRETQVKAYAVVGVHPAEFDYLARNKGLEFARNEVMKALEYAQKLCLEGKAVGIGEVGRPHYEVPQQIWEVSIEIMKYAMELAKDADCAVQLHTESFNEEKFRELGEYIREVGIKPYKVVKHFSPPLVNVAKEVGVFPSIIASKKNIEEAIKQGNRFLMETDYIDDKRRPGAVLGPKTVPKRTKEFLQRGIFTEEDVYKIHVENPKKVYGIEIEGHHHHHH | soluble
20 | MSLIINNIALHFLSKKEETGEVVLRLGPENAEFAQENAKVTNFVDGLHAIYNAKGSKAYGSFSSMPSEGDSARFVDLMESYLTEQQNFYDFSVQAGNVLKNEIEKYDIEETGYFVICHYEYMGGRYLFVAVIPVSEHYSVDGELNISAAQHLDTNKLQLAARIDLFDYKDNSQGNRYISFVKGRAGRKVSDFFLDFLGCEEGLNSKEQTQTLVQAVEDYVSVNQLDPAEKQKTRKDLLSYCKEQKASSQDVSLQEVGKVIESAGTEQDFYQFCQTQSYPIEESFPHEQAVVNKITKYSGYGNGISLSFERSHFGEDVVYNPHNDSLIIYKVPPNLKEQLMALLDSEKVETDLEHHHHHH | not soluble

From the DeepSol protein solubility set
